Laboratory results reported in article PMC11371640, “Structural deficits in key domains of Shank2 lead to alterations in postsynaptic nanoclusters and to a neurodevelopmental disorder in humans” (Molecular Psychiatry, 2022).
Substitutions are numbered along the chain they refer to. Names may count otherwise. “And” between values parts separate entries of the source, which are not always exact repeats. Equal entries are not always repeated. Values belong to the binder of their own block, whether it stands above or below them.

Key:
[1] = biological target: T1, His6-SUMO-tagged SH3 to PDZ domains of Shank2 (R520-D727), WT ( (human or rat cDNA cloned), UniProt Q9UPX8-3 520-727); assay: ITC; peptide in the syringe (200 µM; 1 mM for G643R), His6-SUMO SH3-PDZ protein in the cell (20-30 µM); 25 °C; 50 mM Tris-HCl pH 8.0, 100 mM NaCl, 1 mM EDTA; 1:1 binding model; details: both partners purified
T1 construct: Shank2, SH3 to PDZ domains, residues R520-D727; numbers count on: NM_012309.5 (isoform of 1849 residues); Cloned into pET-SUMO; also called His6-SUMO-SH3-PDZ fusion; Shank2 WT; source: E. coli BL21(DE3), purified (Ni-NTA agarose, G-25); not shown: His6, N-terminal, kept; SUMO, N-terminal, kept
T1 sequence (looked up): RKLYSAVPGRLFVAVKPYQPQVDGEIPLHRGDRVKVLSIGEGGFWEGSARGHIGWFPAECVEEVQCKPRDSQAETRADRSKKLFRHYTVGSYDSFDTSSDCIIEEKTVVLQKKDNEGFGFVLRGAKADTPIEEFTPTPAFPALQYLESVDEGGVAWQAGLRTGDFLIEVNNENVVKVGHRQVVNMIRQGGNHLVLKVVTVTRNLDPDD

[2] = biological target: T2, His6-SUMO-tagged SH3 to PDZ domains of Shank2 (R520-D727), WT ( (human or rat cDNA cloned), UniProt Q9UPX8-3 520-727); assay: ITC
T2 chain: T1 sequence (looked up)

[3] = biological target: T3, His6-SUMO-tagged SH3 to PDZ domains of Shank2 (R520-D727), N690S ( (human or rat cDNA cloned), UniProt Q9UPX8-3 520-727, N690S); assay: ITC
T3 sequence: T1 sequence (looked up) with N171S

[4] = biological target: T4, His6-SUMO-tagged SH3 to PDZ domains of Shank2 (R520-D727), S610Y ( (human or rat cDNA cloned), UniProt Q9UPX8-3 520-727, S610Y); assay: ITC
T4 sequence: T1 sequence (looked up) with S91Y

[5] = biological target: T5, His6-SUMO-tagged SH3 to PDZ domains of Shank2 (R520-D727), G643R ( (human or rat cDNA cloned), UniProt Q9UPX8-3 520-727, G643R); assay: ITC
T5 sequence: T1 sequence (looked up) with G124R

[6] = biological target: T6, His6-SUMO-tagged SH3 to PDZ domains of Shank2 (R520-D727), V717F ( (human or rat cDNA cloned), UniProt Q9UPX8-3 520-727, V717F); assay: ITC
T6 sequence: T1 sequence (looked up) with V198F

[7] = biological target: T7, His6-SUMO-tagged SH3 to PDZ domains of Shank2 (R520-D727), N690S ( (human or rat cDNA cloned), UniProt Q9UPX8-3 520-727, N690S); assay: ITC; peptide in the syringe (200 µM; 1 mM for G643R), His6-SUMO SH3-PDZ protein in the cell (20-30 µM); 25 °C; 50 mM Tris-HCl pH 8.0, 100 mM NaCl, 1 mM EDTA; 1:1 binding model; details: both partners purified
T7 construct: Shank2, SH3 to PDZ domains, residues R520-D727, patient variant N690S; numbers count on: NM_012309.5 (isoform of 1849 residues); source: E. coli BL21(DE3), purified (Ni-NTA agarose, G-25); not shown: His6, N-terminal, kept; SUMO, N-terminal, kept
T7 sequence (looked up): T1 sequence (looked up) with N171S

[8] = biological target: T8, His6-SUMO-tagged SH3 to PDZ domains of Shank2 (R520-D727), V717F ( (human or rat cDNA cloned), UniProt Q9UPX8-3 520-727, V717F); assay: as above; details: both partners purified
T8 construct: Shank2, SH3 to PDZ domains, residues R520-D727, patient variant V717F; numbers count on: NM_012309.5 (isoform of 1849 residues); source: E. coli BL21(DE3), purified (Ni-NTA agarose, G-25); not shown: His6, N-terminal, kept; SUMO, N-terminal, kept
T8 sequence (looked up): T1 sequence (looked up) with V198F

[9] = biological target: T9, His6-SUMO-tagged SH3 to PDZ domains of Shank2 (R520-D727), G643R ( (human or rat cDNA cloned), UniProt Q9UPX8-3 520-727, G643R); assay: as above; details: both partners purified
T9 construct: Shank2, SH3 to PDZ domains, residues R520-D727, patient variant G643R; numbers count on: NM_012309.5 (isoform of 1849 residues); also called G643R mutant Shank2; G643R variant; source: E. coli BL21(DE3), purified (Ni-NTA agarose, G-25); not shown: His6, N-terminal, kept; SUMO, N-terminal, kept
T9 sequence (looked up): T1 sequence (looked up) with G124R

[10] = biological target: T10, His6-SUMO-tagged SH3 to PDZ domains of Shank2 (R520-D727), S610Y ( (human or rat cDNA cloned), UniProt Q9UPX8-3 520-727, S610Y); assay: as above; details: both partners purified
T10 construct: Shank2, SH3 to PDZ domains, residues R520-D727, patient variant S610Y; numbers count on: NM_012309.5 (isoform of 1849 residues); source: E. coli BL21(DE3), purified (Ni-NTA agarose, G-25); not shown: His6, N-terminal, kept; SUMO, N-terminal, kept
T10 sequence (looked up): T1 sequence (looked up) with S91Y

[11] = biological target: the molecule itself; assay: turbidity (absorbance at 350 nm); His6-SUMO-tagged SAM domains, 10 µM, mixed with Zn2+ in 96-well plates (200 µl); absorbance after 10 min or every 10 s with 10 µM Zn2+; 0.5 M NaCl, 20 mM Tris/HCl pH 7.5
[12] = biological target: the molecule itself; assay: dynamic light scattering; isolated SAM domains (tag cleaved), 50 µM protein and 50 µM Zn2+, 1 h at room temperature, filtered 0.22 µm
[13] = biological target: the molecule itself; assay: crystal structure; Shank2-SAM WT (0.1 M Bis-Tris pH 5.5, 0.3 M Mg-formate) and L1800W (0.1 M Bis-Tris pH 5.5, 26% PEG 2000MME); sitting drop vapor diffusion; contacts between symmetry-related SAM domains in the crystal; no Zn2+ added

fold reduction of affinity against the GKAP peptide [1]: ~40 fold
B1: synthetic peptide of the C-terminal PDZ ligand of CIRL1/latrophilin (peptide)
peptide: PGPDGDGQMQLVTSL
notes: CIRL1/latrophilin, C-terminal PDZ ligand (15 residues), free N- and C-terminus; also called CIRL1 peptide; source: synthetic peptide (Genscript)

Kd [2]: 319 nM and 320 nM
Kd [3]: 411 nM
Kd [4]: 910 nM
Kd [5]: 22000 nM and 22500 nM
Kd [6]: 848 nM
binding result [7]: binds
binding result [8]: binds
binding result [1]: binds
fold reduction of affinity against WT [9]: > 70 fold
binding result [10]: binds
B2: synthetic peptide of the complete PDZ ligand of GKAP (last 15 amino acids of GKAP/SAPAP1) (peptide)
peptide: ADSIEIYIPEAQTRL
notes: GKAP/SAPAP1, the last 15 amino acids (complete PDZ ligand), free N- and C-terminus; also called GKAP peptide; source: synthetic peptide (Genscript)

B3: His6-SUMO-tagged Shank2-SAM domain (T1780-R1849), WT (domain or fragment, UniProt Q9UPX8-3 1780-1849, looked up)
chain: TKPVHLWTKPDVADWLESLNLGEHKEAFMDNEIDGSHLPNLQKEDLIDLGVTRVGHRMNIERALKQLLDR
notes: Shank2 SAM domain, residues T1780-R1849; numbers count on: NM_012309.5 (isoform of 1849 residues); also called SUMO-SAM fusion; WT SAM domain; source: E. coli BL21(DE3), purified (Ni-NTA agarose, G-25); not shown: His6, N-terminal, kept; SUMO, N-terminal, kept
binding result [11]: binds

B4: His6-SUMO-tagged Shank2-SAM domain (T1780-R1849), L1800W (domain or fragment, UniProt Q9UPX8-3 1780-1849, looked up)
chain: B3 chain with L21W
notes: Shank2 SAM domain, residues T1780-R1849, patient variant L1800W; numbers count on: NM_012309.5 (isoform of 1849 residues); also called L1800W mutant; p.L1800W SAM domain; source: E. coli BL21(DE3), purified (Ni-NTA agarose, G-25); not shown: His6, N-terminal, kept; SUMO, N-terminal, kept
binding result [11]: binds

B5: Shank2-SAM domain (T1780-R1849), WT, His-SUMO tag cleaved off (domain or fragment, UniProt Q9UPX8-3 1780-1849, looked up)
chain: B3 chain
notes: Shank2 SAM domain, residues T1780-R1849; numbers count on: NM_012309.5 (isoform of 1849 residues); also called SAM-WT; Shank2-SAM WT; source: E. coli BL21(DE3), purified (Ni-NTA agarose), tag cleaved with SUMO protease and removed on Ni-NTA; not shown: His6, N-terminal, cleaved; SUMO, N-terminal, cleaved
binding result [12]: binds

B6: Shank2-SAM domain (T1780-R1849), L1800W, His-SUMO tag cleaved off (domain or fragment, UniProt Q9UPX8-3 1780-1849, looked up)
chain: B3 chain with L21W
notes: Shank2 SAM domain, residues T1780-R1849, patient variant L1800W; numbers count on: NM_012309.5 (isoform of 1849 residues); also called SAM-L1800W; L1800W mutant SAM domain; source: E. coli BL21(DE3), purified (Ni-NTA agarose), tag cleaved with SUMO protease and removed on Ni-NTA; not shown: His6, N-terminal, cleaved; SUMO, N-terminal, cleaved
binding result [13]: binds
